Data: paper PMC2756588

T1: Pex13, P80667
T1 sequence (P80667 295-386, looked up): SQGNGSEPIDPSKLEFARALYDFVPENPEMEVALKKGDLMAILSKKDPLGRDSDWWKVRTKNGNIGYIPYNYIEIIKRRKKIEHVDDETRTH

T2: Bzz1-2, P38822
T2 sequence (P38822 568-633, looked up): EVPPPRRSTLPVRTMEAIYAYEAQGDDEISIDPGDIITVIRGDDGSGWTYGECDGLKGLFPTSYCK

T3: Nbp2, Q12163
T3 sequence (Q12163 103-180, looked up): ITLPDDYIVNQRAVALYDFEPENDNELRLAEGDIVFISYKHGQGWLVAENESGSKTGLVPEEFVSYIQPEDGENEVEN

T4: Sla1-2, P32790
T4 sequence (P32790 60-140, looked up): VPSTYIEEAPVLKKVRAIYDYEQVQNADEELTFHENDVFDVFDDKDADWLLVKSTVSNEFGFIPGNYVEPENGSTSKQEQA

T5: Pin3, Q06449
T5 sequence (Q06449 53-122, looked up): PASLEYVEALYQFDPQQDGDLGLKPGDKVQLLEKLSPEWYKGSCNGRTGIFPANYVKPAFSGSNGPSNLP

T6: Boi2, P39969
T6 sequence (P39969 32-116, looked up): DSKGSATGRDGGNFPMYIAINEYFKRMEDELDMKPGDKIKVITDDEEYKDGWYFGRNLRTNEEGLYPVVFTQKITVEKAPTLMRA

T7: Lsb1, P53281
T7 sequence (P53281 45-122, looked up): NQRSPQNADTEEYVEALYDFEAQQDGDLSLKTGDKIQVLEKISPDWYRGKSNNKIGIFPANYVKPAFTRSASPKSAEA

T8: Lsb4, P32793
T8 sequence (P32793 402-468, looked up): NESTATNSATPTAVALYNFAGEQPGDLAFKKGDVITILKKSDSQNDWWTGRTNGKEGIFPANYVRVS

T9: Bzz1-1, P38822
T9 sequence (P38822 478-572, looked up): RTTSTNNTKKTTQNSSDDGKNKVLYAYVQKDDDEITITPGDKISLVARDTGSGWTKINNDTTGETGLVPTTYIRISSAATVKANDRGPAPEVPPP

T10: Boi1, P38041
T10 sequence (P38041 1-86, looked up): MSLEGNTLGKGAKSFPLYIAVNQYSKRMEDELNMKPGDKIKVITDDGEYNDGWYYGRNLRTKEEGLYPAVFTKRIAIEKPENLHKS

T11: Abp1, P15891
T11 sequence (P15891 535-592, looked up): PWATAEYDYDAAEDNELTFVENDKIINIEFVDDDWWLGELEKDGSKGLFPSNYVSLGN

T12: Lsb3, P43603
T12 sequence (P43603 385-451, looked up): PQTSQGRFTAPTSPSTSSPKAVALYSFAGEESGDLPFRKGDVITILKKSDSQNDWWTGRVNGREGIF

T13: Bud14, P27637
T13 sequence (P27637 247-328, looked up): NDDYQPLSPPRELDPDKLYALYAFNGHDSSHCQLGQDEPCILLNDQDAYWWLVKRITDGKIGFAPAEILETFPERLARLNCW

T14: Cdc25, P04821
T14 sequence (P04821 50-136, looked up): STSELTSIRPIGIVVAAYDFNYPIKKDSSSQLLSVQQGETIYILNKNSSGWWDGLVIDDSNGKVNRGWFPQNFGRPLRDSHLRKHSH

T15: Sla1-3, P32790
T15 sequence (P32790 344-424, looked up): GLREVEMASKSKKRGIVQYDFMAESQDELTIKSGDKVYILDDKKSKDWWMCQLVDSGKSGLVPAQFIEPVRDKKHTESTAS

T16: Cyk3, Q07533
T16 sequence (Q07533 1-83, looked up): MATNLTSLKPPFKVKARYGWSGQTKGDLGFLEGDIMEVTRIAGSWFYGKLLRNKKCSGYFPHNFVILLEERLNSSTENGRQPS

T17: Hof1, Q05080
T17 sequence (Q05080 590-669, looked up): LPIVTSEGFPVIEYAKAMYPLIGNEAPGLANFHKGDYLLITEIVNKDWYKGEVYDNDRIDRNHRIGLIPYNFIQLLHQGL

T18: Hse1, P38753
T18 sequence (P38753 208-285, looked up): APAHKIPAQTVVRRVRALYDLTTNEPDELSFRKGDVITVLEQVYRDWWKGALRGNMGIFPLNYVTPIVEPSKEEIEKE

T19: Myo5, Q04439
T19 sequence (Q04439 1072-1160, looked up): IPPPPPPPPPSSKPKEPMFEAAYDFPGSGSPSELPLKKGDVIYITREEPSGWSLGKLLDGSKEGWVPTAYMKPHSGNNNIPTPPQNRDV

T20: Bbc1, P47068
T20 sequence (P47068 1-78, looked up): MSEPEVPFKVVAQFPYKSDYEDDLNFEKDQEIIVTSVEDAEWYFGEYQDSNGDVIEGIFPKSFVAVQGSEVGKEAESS

T21: Fus1, P11710
T21 sequence (P11710 432-512, looked up): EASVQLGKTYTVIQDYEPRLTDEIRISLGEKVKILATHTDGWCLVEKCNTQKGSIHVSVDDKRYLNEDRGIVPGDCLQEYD


Assays:
Test in all cases: SPOT array
Pex13, P80667 = target: T1, Pex13, P80667; settings: median of control spots 1341
Bem1-1, P29366 = settings: median of control spots 4282
Sequence of Bem1-1, P29366 (P29366 55-141): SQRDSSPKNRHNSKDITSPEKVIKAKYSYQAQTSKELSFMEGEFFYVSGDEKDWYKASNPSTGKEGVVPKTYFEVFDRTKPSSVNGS

Sho1, P40073 = settings: median of control spots 1148
Sequence of Sho1, P40073 (P40073 287-367): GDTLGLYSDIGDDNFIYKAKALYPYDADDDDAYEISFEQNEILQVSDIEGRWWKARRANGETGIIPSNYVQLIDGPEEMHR

Myo3, P36006 = settings: median of control spots 468
Bzz1-2, P38822 = target: T2, Bzz1-2, P38822; settings: median of control spots 4538
Nbp2, Q12163 = target: T3, Nbp2, Q12163; settings: median of control spots 357
Sla1-2, P32790 = target: T4, Sla1-2, P32790; settings: median of control spots 712
Rvs167, P39743 = settings: median of control spots 2707
Sequence of Rvs167, P39743 (P39743 419-482): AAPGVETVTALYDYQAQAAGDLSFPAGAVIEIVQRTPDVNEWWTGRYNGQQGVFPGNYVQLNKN

Pin3, Q06449 = target: T5, Pin3, Q06449; settings: median of control spots 2171
Boi2, P39969 = target: T6, Boi2, P39969; settings: median of control spots 1161
Lsb1, P53281 = target: T7, Lsb1, P53281; settings: median of control spots 388
Lsb4, P32793 = target: T8, Lsb4, P32793; settings: median of control spots 397
Bzz1-1, P38822 = target: T9, Bzz1-1, P38822; settings: median of control spots 4446
Boi1, P38041 = target: T10, Boi1, P38041; settings: median of control spots 1162
Abp1, P15891 = target: T11, Abp1, P15891; settings: median of control spots 935
Lsb3, P43603 = target: T12, Lsb3, P43603; settings: median of control spots 406
Bud14, P27637 = target: T13, Bud14, P27637; settings: median of control spots 956
Bem1-2, P29366 = settings: median of control spots 4347
Sequence of Bem1-2, P29366 (P29366 139-227): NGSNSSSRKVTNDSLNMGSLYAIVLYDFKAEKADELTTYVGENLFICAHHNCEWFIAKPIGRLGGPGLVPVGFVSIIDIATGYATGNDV

Cdc25, P04821 = target: T14, Cdc25, P04821; settings: median of control spots 969
Sla1-3, P32790 = target: T15, Sla1-3, P32790; settings: median of control spots 5475
Cyk3, Q07533 = target: T16, Cyk3, Q07533; settings: median of control spots 1451
Hof1, Q05080 = target: T17, Hof1, Q05080; settings: median of control spots 4086
Hse1, P38753 = target: T18, Hse1, P38753; settings: median of control spots 1727
Myo5, Q04439 = target: T19, Myo5, Q04439; settings: median of control spots 471
GST = settings: median of control spots 978
Bbc1, P47068 = target: T20, Bbc1, P47068; settings: median of control spots 796
Fus1, P11710 = target: T21, Fus1, P11710; settings: median of control spots 1200

| SPOT intensity (Pex13, P80667) | SPOT intensity (Bem1-1, P29366) | SPOT intensity (Sho1, P40073) | SPOT intensity (Myo3, P36006) | SPOT intensity (Bzz1-2, P38822) | SPOT intensity (Nbp2, Q12163) | SPOT intensity (Sla1-2, P32790) | SPOT intensity (Rvs167, P39743) | SPOT intensity (Pin3, Q06449) | SPOT intensity (Boi2, P39969) | SPOT intensity (Lsb1, P53281) | SPOT intensity (Lsb4, P32793) | SPOT intensity (Bzz1-1, P38822) | SPOT intensity (Boi1, P38041) | SPOT intensity (Abp1, P15891) | SPOT intensity (Lsb3, P43603) | SPOT intensity (Bud14, P27637) | SPOT intensity (Bem1-2, P29366) | SPOT intensity (Cdc25, P04821) | SPOT intensity (Sla1-3, P32790) | Binder | other results |
| --- | --- | --- | --- | --- | --- | --- | --- | --- | --- | --- | --- | --- | --- | --- | --- | --- | --- | --- | --- | --- | --- |
| 124 | 0 | 55 | 81 | 350 | 513 | 8 | 67 | 69 | 0 | 140 | 88 | 2 | 0 | 326 | 54 | 5 | 567 | 9 | 88 | KMSRSPPRPPSLKII | SPOT intensity (Cyk3, Q07533): 0; SPOT intensity (Hof1, Q05080): 0; SPOT intensity (Hse1, P38753): 14; SPOT intensity (Myo5, Q04439): 64; SPOT intensity (GST): 1; SPOT intensity (Bbc1, P47068): 98; SPOT intensity (Fus1, P11710): 0 |
| 38 | 0 | 71 | 18 | 0 | 52 | 0 | 0 | 30 | 3 | 4 | 7 | 0 | 7 | 108 | 6 | 8 | 20 | 77 | 24 | DRIRMFIRFPKFLLE | SPOT intensity (Cyk3, Q07533): 2; SPOT intensity (Hof1, Q05080): 21; SPOT intensity (Hse1, P38753): 17; SPOT intensity (Myo5, Q04439): 2; SPOT intensity (GST): 0; SPOT intensity (Bbc1, P47068): 43; SPOT intensity (Fus1, P11710): 39 |
| 143 | 0 | 8 | 37 | 186 | 314 | 0 | 0 | 19 | 0 | 63 | 3 | 16 | 0 | 114 | 5 | 0 | 4210 | 0 | 2040 | FYHRPAPKPPVTKKV | SPOT intensity (Cyk3, Q07533): 0; SPOT intensity (Hof1, Q05080): 0; SPOT intensity (Hse1, P38753): 78; SPOT intensity (Myo5, Q04439): 12; SPOT intensity (GST): 0; SPOT intensity (Bbc1, P47068): 45; SPOT intensity (Fus1, P11710): 0 |
| 11 | 0 | 121 | 42 | 49 | 56 | 1 | 0 | 6 | 1 | 0 | 20 | 9 | 2 | 202 | 4 | 12 | 81 | 53 | 213 | NLPKRKPPKLQGPFS | SPOT intensity (Cyk3, Q07533): 1; SPOT intensity (Hof1, Q05080): 24; SPOT intensity (Hse1, P38753): 440; SPOT intensity (Myo5, Q04439): 3; SPOT intensity (GST): 1; SPOT intensity (Bbc1, P47068): 31; SPOT intensity (Fus1, P11710): 6 |
| 6 | 1 | 99 | 20 | 946 | 283 | 0 | 9 | 7 | 0 | 1290 | 29 | 27 | 1 | 274 | 8 | 6 | 0 | 15 | 24 | RKRAPTPPAPSRSEK | SPOT intensity (Cyk3, Q07533): 1; SPOT intensity (Hof1, Q05080): 0; SPOT intensity (Hse1, P38753): 3; SPOT intensity (Myo5, Q04439): 0; SPOT intensity (GST): 1; SPOT intensity (Bbc1, P47068): 105; SPOT intensity (Fus1, P11710): 14 |
| 80 | 0 | 95 | 99 | 1440 | 120 | 1 | 9 | 57 | 2 | 52 | 63 | 60 | 7 | 205 | 12 | 21 | 56 | 58 | 11 | NTMKKRPAPPSLPSL | SPOT intensity (Cyk3, Q07533): 1; SPOT intensity (Hof1, Q05080): 489; SPOT intensity (Hse1, P38753): 53; SPOT intensity (Myo5, Q04439): 115; SPOT intensity (GST): 0; SPOT intensity (Bbc1, P47068): 15; SPOT intensity (Fus1, P11710): 0 |
